Here are results for one molecule from patent publication US20050288225A1 (YEDA RESEARCH AND DEVELOPMENT, published 2005).

For this assay, the target named is T1, HA-tagged B1 protein (Homo sapiens (Human), UniProt O43353 1-540).
T1 construct: Expressed in transfected 293 cells for co-immunoprecipitation; also called HA-B1
As to the kind of experiment: co-immunoprecipitation from transfected 293 cells: anti-FLAG IP, anti-HA western blot.

T1 sequence (O43353 whole entry L79F): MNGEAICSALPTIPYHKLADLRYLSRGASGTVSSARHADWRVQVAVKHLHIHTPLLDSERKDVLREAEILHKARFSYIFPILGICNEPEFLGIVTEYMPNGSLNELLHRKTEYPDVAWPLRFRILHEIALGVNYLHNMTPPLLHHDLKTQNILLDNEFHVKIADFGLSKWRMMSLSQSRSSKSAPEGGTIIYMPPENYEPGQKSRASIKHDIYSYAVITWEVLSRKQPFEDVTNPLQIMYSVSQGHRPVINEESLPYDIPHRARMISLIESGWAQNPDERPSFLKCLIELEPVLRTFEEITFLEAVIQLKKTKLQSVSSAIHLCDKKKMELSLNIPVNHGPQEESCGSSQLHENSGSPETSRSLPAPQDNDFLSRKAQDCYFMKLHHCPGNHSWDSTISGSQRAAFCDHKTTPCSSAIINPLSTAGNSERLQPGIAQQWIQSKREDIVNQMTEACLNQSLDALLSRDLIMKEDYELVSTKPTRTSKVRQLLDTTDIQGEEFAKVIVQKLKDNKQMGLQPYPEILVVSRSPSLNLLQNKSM
Protocol: Seven hours after transfection cells were washed and 18 hours later cells were lysed in a buffer containing 50 mM HEPES pH 7.5, 250 mM NaCl, 0.2% NP-40, 5 mM EDTA, 1 mM phenylmethylsulfonyl fluoride, 2.0 μg/ml aprotinin and 20 μg/ml leupeptin (lysis buffer). Immunoprecipitation was performed by incubation (2hours, 4° C.) of 1 ml aliquots of lysate with anti-FLAG epitope antibody (5 μg/aliquot) and with protein G-agarose beads (30 μl/aliquot). Immunoprecipitates were washed three times with lysis buffer and once with PBS, fractionated by 10% SDS-PAGE and transferred to a nitrocellulose membrane (Schleicher & Schuell, Dassel, Germany). Western blot analysis was performed with anti-HA epitope monoclonal antibodies applied at a dilution of 1:1000, and the ECL kit (Amersham, Buckinghamshire, England).

B1: Flag-tagged TRAF2 (other, UniProt Q12933 1-501, looked up, not shown: small tags and cut ends)
chain: MAAASVTPPGSLELLQPGFSKTLLGTKLEAKYLCSACRNVLRRPFQAQCGHRYCSFCLASILSSGPQNCAACVHEGIYEEGISILESSSAFPDNAARREVESLPAVCPSDGCTWKGTLKEYESCHEGRCPLMLTECPACKGLVRLGEKERHLEHECPERSLSCRHCRAPCCGADVKAHHEVCPKFPLTCDGCGKKKIPREKFQDHVKTCGKCRVPCRFHAIGCLETVEGEKQQEHEVQWLREHLAMLLSSVLEAKPLLGDQSHAGSELLQRCESLEKKTATFENIVCVLNREVERVAMTAEACSRQHRLDQDKIEALSSKVQQLERSIGLKDLAMADLEQKVLEMEASTYDGVFIWKISDFARKRQEAVAGRIPAIFSPAFYTSRYGYKMCLRIYLNGDGTGRGTHLSLFFVVMKGPNDALLRWPFNQKVTLMLLDQNNREHVIDAFRPDVTSSSFQRPVNDMNIASGCPLFCPVSKMEAKNSYVRDDAIFIKAIVDLTGL
notes: Expressed in transfected 293 cells; also called FL-TRAF2
Take B1: the binding result is listed as “no binding”.
